The results in this text go back to US20260092091A1.

For this test, the target named is CXCR2 expressed on 300-19 pre-B cells. Put plainly: cell-based or functional assay.

On to “human wild-type GCP-2 (granulocyte chemotactic protein 2, CXCL6), recombinant (from UniProt P80162 38-114) (ligand)”, for which the chemotaxis in Boyden chambers (Transwell), optimal concentration stood at 50 nM and the transendothelial migration in Boyden chambers (EA.hy 926 monolayer), optimal concentration came to 50 nM.
